Patent publication US20040042961

Key:
[1] = tested on: GFP double loop insertion mutant at positions 157-158 and 174-175 with GGGG-LETD-GGGGG (caspase 8 sites)
[2] = tested on: GFP double insertion mutant K157-Q158 and D174-G175 (cathepsin L sites)
[3] = tested on: GFP single insertion mutant D174-G175 (GGGGFFRSGGGG inserted)
[4] = tested on: GFP single insertion mutant G117-D118 (GGGGFFRSGGGG inserted)
[5] = tested on: GFP single insertion mutant K102-D103 (GGGGFFRSGGGG inserted)
[6] = tested on: GFP single insertion mutant K157-Q158 (GGGGFFRSGGGG inserted)
[7] = tested on: GFP single insertion mutant T39-Y40 (GGGGFFRSGGGG inserted)
[8] = tested on: recombinant GFP-His protein (wild type GFP)
[9] = tested on: substitution mutants (GFP sequence substituted with FRS at various positions; fifteen fluorescent of twenty)

cathepsin L, sequence (chain, as listed by the source): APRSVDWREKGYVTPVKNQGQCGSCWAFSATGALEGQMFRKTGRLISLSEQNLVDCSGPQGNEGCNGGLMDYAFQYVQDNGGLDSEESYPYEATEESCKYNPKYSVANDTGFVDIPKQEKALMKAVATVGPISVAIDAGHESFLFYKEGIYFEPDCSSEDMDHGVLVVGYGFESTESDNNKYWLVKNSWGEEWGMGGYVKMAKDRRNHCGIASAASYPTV

| Substance | Cleavage at sequence introduced [1] | Cleavage at sequence introduced [2] | Cleavage at sequence introduced [3] | Cleavage at sequence introduced [4] | Cleavage at sequence introduced [5] | Cleavage at sequence introduced [6] | Cleavage at sequence introduced [7] | GFP fluorescence and SDS-PAGE band on incubation with 400 nM cathepsin L at pH 5.5 and 4.8 [8] | specific cleavage (SDS-PAGE) [9] |
| --- | --- | --- | --- | --- | --- | --- | --- | --- | --- |
| caspase 8 | (yes) | – | – | – | – | – | – | – | – |
| cathepsin L | – | (yes) | Yes | No | Yes | Yes | Yes | A time-dependent decrease in GFP fluorescence was observed (FIG. 10A), with concommitant disappearance of the GFP band on SDS-PAGE | fifteen mutants were fluorescent and therefore properly folded, but only one of them was specifically cleaved by cathepsin L |
